# Reference: publication PMC9232636, “Insights into the mechanism of action of the arbitrium communication system in SPbeta phages” (Nature Communications, 2022)
# Where two headings read alike, the source gives them in different places.
# T1: AimR from B. subtilis phage SPβ (AimR^SPβ) (Bacillus subtilis phage SPβ) (UniProt O64094)
# T1 sequence: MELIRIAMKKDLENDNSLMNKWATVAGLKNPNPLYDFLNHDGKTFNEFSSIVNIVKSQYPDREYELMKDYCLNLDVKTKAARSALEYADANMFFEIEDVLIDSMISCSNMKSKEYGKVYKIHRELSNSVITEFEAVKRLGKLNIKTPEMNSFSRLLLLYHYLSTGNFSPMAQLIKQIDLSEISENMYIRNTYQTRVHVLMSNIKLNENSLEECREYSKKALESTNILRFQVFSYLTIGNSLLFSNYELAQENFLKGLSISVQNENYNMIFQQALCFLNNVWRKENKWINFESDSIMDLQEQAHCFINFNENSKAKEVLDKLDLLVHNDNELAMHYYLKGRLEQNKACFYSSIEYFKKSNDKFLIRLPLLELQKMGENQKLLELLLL
# T2: AimRSPb-II (C-terminal His tag) (Bacillus phage SPbeta (B. subtilis 168 …, UniProt O64094 1-386))
# T2 sequence: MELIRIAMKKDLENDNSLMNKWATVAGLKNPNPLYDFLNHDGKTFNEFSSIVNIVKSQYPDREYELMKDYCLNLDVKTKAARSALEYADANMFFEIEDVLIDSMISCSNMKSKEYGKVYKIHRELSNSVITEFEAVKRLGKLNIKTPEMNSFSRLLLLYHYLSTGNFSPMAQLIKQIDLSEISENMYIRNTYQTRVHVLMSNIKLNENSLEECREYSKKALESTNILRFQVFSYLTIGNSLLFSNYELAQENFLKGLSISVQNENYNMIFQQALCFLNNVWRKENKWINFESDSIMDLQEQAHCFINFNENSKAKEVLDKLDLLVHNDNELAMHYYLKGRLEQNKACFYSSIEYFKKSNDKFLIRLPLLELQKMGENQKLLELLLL
# T3: AimRSPb-I (untagged) (Bacillus phage SPbeta, UniProt O64094 1-386)
# T3 sequence: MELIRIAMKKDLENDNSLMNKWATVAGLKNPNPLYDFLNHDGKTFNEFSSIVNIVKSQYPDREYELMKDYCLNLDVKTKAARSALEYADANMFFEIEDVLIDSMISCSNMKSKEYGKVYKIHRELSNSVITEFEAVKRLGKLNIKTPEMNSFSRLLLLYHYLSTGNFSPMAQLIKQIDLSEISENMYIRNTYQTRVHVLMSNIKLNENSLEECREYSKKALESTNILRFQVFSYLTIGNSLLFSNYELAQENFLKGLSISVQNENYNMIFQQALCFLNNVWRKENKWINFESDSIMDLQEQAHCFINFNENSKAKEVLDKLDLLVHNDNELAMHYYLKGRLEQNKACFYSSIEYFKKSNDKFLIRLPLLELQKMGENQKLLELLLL
# Legend:
# [1] = biological target: AimR from Katmira phage (AimR^Kat) (Katmira phage (resident phage of Bacillus subtilis subsp. KATMIRA1933)); assay: ITC; Nano ITC Low Volume; protein 10 μM, peptide 50 μM; 25 mM Tris-HCl pH 8, 250 mM NaCl; 25 °C; biphasic thermograms fitted to a two-binding site model, one site per monomer of the AimR dimer
# [2] = biological target: AimR^Kat-N273A (Katmira phage (resident phage of Bacillus subtilis subsp. KATMIRA1933)); assay: as above
# [3] = biological target: AimR from Katmira phage (AimR^Kat) (Katmira phage (resident phage of Bacillus subtilis subsp. KATMIRA1933)); assay: thermal shift assay (ThermoFluor); 20 μM protein, 5× Sypro Orange, 0.5 μM peptide as printed; 20 mM Tris pH 8, 250 mM NaCl; 25 to 85 °C
# [4] = biological target: AimR from Katmira phage (AimR^Kat) (Katmira phage (resident phage of Bacillus subtilis subsp. KATMIRA1933)); assay: SEC-MALS; AimR^Kat with 1 mM AimP^Kat peptide in the injected sample and 1 μM peptide in the running buffer; 5 mg/ml, KW-803 (Shodex); 25 mM Tris pH 8, 250 mM NaCl
# [5] = biological target: AimR from Katmira phage (AimR^Kat) (Katmira phage (resident phage of Bacillus subtilis subsp. KATMIRA1933)); assay: SEC-MALS; apo AimR^Kat, 50 μl at 5 mg/ml on KW-803 (Shodex); 25 mM Tris pH 8, 250 mM NaCl
# [6] = biological target: AimRKat (Bacillus phage Katmira (prophage of Bacillus subtilis KATMIRA1933)) (UniProt A0A7G5CHT1); assay: BLI; details: BLI: PBS (0.01% Tween, 0.1% BSA for hydration, baseline and dissociation), AimR 0.015-2.5 uM, temperature not stated; EMSA: 50 mM Tris pH 8, 250 mM NaCl, room …
# [7] = biological target: AimR^Kat-N273A (Katmira phage (resident phage of Bacillus subtilis subsp. KATMIRA1933)); assay: ITC; Nano ITC Low Volume; protein 10 μM, peptide 50 μM; 25 mM Tris-HCl pH 8, 250 mM NaCl; 25 °C; biphasic thermograms fitted to a two-binding site model, one site per monomer of the AimR dimer; remark: listed apart in the source
# [8] = biological target: T1, AimR from B. subtilis phage SPβ (AimR^SPβ) (Bacillus subtilis phage SPβ)
# aimX-box^Kat = assay: Biolayer interferometry, AimR binding to aimX operator; set-up: species or system Katmira phage; details: BLI, 1:1 model
# Description: (§1) The Binding affinity (KD), association (kon) and dissociation (koff) rate constants between AimRs and DNA were measured by biolayer interferometry (BLI) using the BLITz system (FortéBio). Biotinilated DNA probes (IDT) (Supplementary Table 3) were immobilised in Streptavidin biosensors (FortéBio) at 50 μg ml^−1. Biosensor hydration, baselines and dissociation analysis were carried out in phosphate buffer (PBS) supplemented with 0.01% tween and 0.1% BSA. Proteins were diluted in PBS. At least four different dilutions of AimR were used in a range between 0.015 and 2.5 μM. A blank using a chip without bounded DNA was used to subtract unspecific binding. Kinetic value calculations and data analysis were performed using BLItz Pro 1.2 software employing a 1:1 model to fit the data.
# aimX-box^SPβ = assay: as above; set-up: species or system phage SPβ; details: BLI
# Description: as §1
# AimR^SPβ = assay: Thermal shift assay of AimR^SPβ with and without C-terminal His-tag; type: physicochemical, phage SPβ
# Description: The thermal shift assay was conducted in a 7500 Fast Real time PCR System (Applied Biosystems) as previously described. Briefly, samples of 20 μl buffer (20 mM Tris pH 8 and 250 mM NaCl) containing 5× Sypro Orange (Sigma-Aldrich) and 20 μM of protein were loaded in 96-well PCR plates. To calculate the Tm in the presence of the peptide, 0.5 μM of GMPRGA or GIVRGA peptide was added to the mixture. Samples were heated from 25 to 85 °C in steps of one degree. Fluorescent intensity was plotted versus temperature and integrated with GraphPad Prism software using a Boltzmann model to calculate melting temperatures.
# aimX-box^Phi = assay: Biolayer interferometry, AimR binding to aimX operator; set-up: species or system phage phi3T; key to kon / koff: NBD: not binding detected in the experimental conditions used. KD > 1 × 10^−6 M; details: BLI, 1:1 model
# Description: as §1
# [9] = biological target: T2, AimRSPb-II (C-terminal His tag); assay: BLI; BLI: PBS (0.01% Tween, 0.1% BSA for hydration, baseline and dissociation), AimR 0.015-2.5 uM, temperature not stated; EMSA: 50 mM Tris pH 8, 250 mM NaCl, room temperature 10 min, 0.5 uM peptide, gel at 4 C; details: protein: recombinant; chain copies: 2
# AimRSPb-I (untagged) [10] = biological target: T3, AimRSPb-I (untagged); assay: as above; details: protein: recombinant; tags: N-terminal His tag removed; chain copies: 2
# AimRSPb-I (untagged) [11] = biological target: T3, AimRSPb-I (untagged); assay: EMSA; BLI: PBS (0.01% Tween, 0.1% BSA for hydration, baseline and dissociation), AimR 0.015-2.5 uM, temperature not stated; EMSA: 50 mM Tris pH 8, 250 mM NaCl, room temperature 10 min, 0.5 uM peptide, gel at 4 C; details: protein: recombinant; tags: N-terminal His tag removed; chain copies: 2
molecule,measurement,setting,value
"AimP^Kat, active (mature) Katmira AimP peptide GIVRGA","KD1 (monomer 1, two-binding site model)",[1],4.1 nM
same,"KD2 (monomer 2, two-binding site model)",[1],5.7 nM
same,"KD1 (monomer 1, two-binding site model)",[2],194 nM
same,"KD2 (monomer 2, two-binding site model)",[2],356 nM
same,increment of the melting temperature (Tm),[3],20 °C
AimR from Katmira phage (AimR^Kat) (receptor),stoichiometry N,[4],2
same,stoichiometry N,[5],2
GGGAAAGTTCCAGAAATTCAAAAATCAAAAAATAAGAACATGGGG (double strand) [aimX-boxPhi BLI probe (DNA_Phi3T_b)],Kd,[6],> 1000 nM
GTTGATCACTTAAATATTAAGTTTTTATAACATCTAGTGATGGCC (double strand) [aimX-boxKat BLI probe (DNA_Kat_b)],Kd,[6],23.1 nM
GTTGATCACTTAAATATTAGGTTTTAATAACATCTAGTGATGGCC (double strand) [aimX-boxSPb BLI probe (DNA_SPb_b)],Kd,[6],21.4 nM
"GMPRGA [AimP^SPβ, the SPβ AimP peptide GMPRGA]","KD1 (monomer 1, two-binding site model)",[7],1.3 µM
same,"KD2 (monomer 2, two-binding site model)",[7],1.6 µM
same,"phage titre (PFU/ml) after mitomycin C induction of the SPβ ΔaimR prophage complemented with AimR^SPβ, 5 μM peptide added (times (reduction of the titre))",[8],10
AimR^SPβ-I: AimR^SPβ receptor without tags (protein) MELIRIAMKKDLENDNSLMNKWATVAGLKNPNPLYDFLNHDGKTFNEFSSIVNIVKSQYPDREYELMKDYCLNLDVKTKAARSALEYADANMFFEIEDVLIDSMISCSNMKSKEYGKVYKIHRELSNSVITEFEAVKRLGKLNIKTPEMNSFSRLLLLYHYLSTGNFSPMAQLIKQIDLSEISENMYIRNTYQTRVHVLMSNIKLNENSLEECREYSKKALESTNILRFQVFSYLTIGNSLLFSNYELAQENFLKGLSISVQNENYNMIFQQALCFLNNVWRKENKWINFESDSIMDLQEQAHCFINFNENSKAKEVLDKLDLLVHNDNELAMHYYLKGRLEQNKACFYSSIEYFKKSNDKFLIRLPLLELQKMGENQKLLELLLL,Kd,"aimX-box^Kat; BLITz, streptavidin biosensor with biotinylated DNA, PBS, mean of five measurements",19.6 nM
same,koff,aimX-box^Kat; PBS + 0.01% tween and 0.1% BSA,0.078 ± 0.0025 s⁻¹
same,kon,aimX-box^Kat; PBS,3.98e+06 ± 427000 M⁻¹ s⁻¹
same,Kd,"aimX-box^SPβ; BLITz, streptavidin biosensor with biotinylated DNA, PBS, 1:1 model, mean of five measurements, read-out: KD",19.3 nM
same,koff,"aimX-box^SPβ; PBS + 0.01% tween and 0.1% BSA, 1:1 model",0.0726 ± 0.00229 s⁻¹
same,kon,"aimX-box^SPβ; PBS, 1:1 model",3.75e+06 ± 324000 M⁻¹ s⁻¹
same,Kd,"aimX-box^SPβ; peer review file, stated jointly for aimX-box^SPβ and aimX-box^Kat, read-out: affinity (KD)",19 nM
same,Tm,"AimR^SPβ; 20 mM Tris pH 8, 250 mM NaCl, 20 μM protein, no peptide",53.6 °C
same,Tm,"AimR^SPβ; Supplementary Fig. 5b, in °C (unit assumed)",53.6 ± 0.7
same,Kd,"aimX-box^Phi; BLITz, PBS, AimR 0.015-2.5 μM",> 1000 nM
same,koff,aimX-box^Phi; PBS + 0.01% tween and 0.1% BSA,NBD^d
same,kon,aimX-box^Phi; PBS,NBD^d
aimX-boxSPb BLI probe (DNA_SPb_b) (dsDNA) DNA 1: GTTGATCACTTAAATATTAGGTTTTAATAACATCTAGTGATGGCC DNA 2: GGCCATCACTAGATGTTATTAAAACCTAATATTTAAGTGATCAAC,Kd,[9],116 nM
same,Kd,AimRSPb-I (untagged) [10],19.3 nM
aimX-boxKat BLI probe (DNA_Kat_b) (dsDNA) DNA 1: GTTGATCACTTAAATATTAAGTTTTTATAACATCTAGTGATGGCC DNA 2: GGCCATCACTAGATGTTATAAAAACTTAATATTTAAGTGATCAAC,Kd,[9],116 nM
same,Kd,AimRSPb-I (untagged) [10],19.6 nM
aimX-boxPhi EMSA probe (DNA_Phi3T) (dsDNA) DNA 1: GTTGATGTTCCAGAAATTCAAAAATCAAAAAATAAGAACATGGCC DNA 2: GGCCATGTTCTTATTTTTTGATTTTTGAATTTCTGGAACATCAAC,binding result,AimRSPb-I (untagged) [11],no binding
